The chains are these.
B1: pSLmetAY: MetA variant with Tyr instead of Asp at position 101 (protein, UniProt P07623 2-309, looked up, variant D101Y)
Homoserine …: PIRVPDELPAVNFLREENVFVMTTSRASGQEIRPLKVLILNLMPKKIETENQFLRLLSNSPLQVDIQLLRIDSRESRNTPAEHLNNFYCNFEDIQDQNFYGLIVTGAPLGLVEFNDVAYWPQIKQVLEWSKDHVTSTLFVCWAVQAALNILYGIPKQTRTEKLSGVYEHHILHPHALLTRGFDDSFLAPHSRYADFPAALIRDYTDLEILAETEEGDAYLFASKDKRIAFVTGHPEYDAQTLAQEFFRDVEAGLDPDVPYNYFPHNDPQNTPRASWRSHGNLLFTNWLNYYVYQITPYDLRHMNPTLD
B2: pSLmetAC: MetA variant with Cys instead of Asp at position 101 (protein, UniProt P07623 2-309, looked up, variant D101C)
Homoserine …: B1 Homoserine … with Y100C
B3: pSLmetAH: MetA variant with His instead of Asp at position 101 (protein, UniProt P07623 2-309, looked up, variant D101H)
Homoserine …: B1 Homoserine … with Y100H
B4: pSLmetAS: MetA variant with Ser instead of Asp at position 101 (protein, UniProt P07623 2-309, looked up, variant D101S)
Homoserine …: B1 Homoserine … with Y100S
B5: pSLmetA*0: MetA variant in which amino acid 294 is deleted (protein, UniProt P07623 2-309, looked up, variant Y294*)
Homoserine …: PIRVPDELPAVNFLREENVFVMTTSRASGQEIRPLKVLILNLMPKKIETENQFLRLLSNSPLQVDIQLLRIDSRESRNTPAEHLNNFYCNFEDIQDQNFDGLIVTGAPLGLVEFNDVAYWPQIKQVLEWSKDHVTSTLFVCWAVQAALNILYGIPKQTRTEKLSGVYEHHILHPHALLTRGFDDSFLAPHSRYADFPAALIRDYTDLEILAETEEGDAYLFASKDKRIAFVTGHPEYDAQTLAQEFFRDVEAGLDPDVPYNYFPHNDPQNTPRASWRSHGNLLFTNWLNYYVQITPYDLRHMNPTLD
B6: pKP413GAP: E. coli wild-type homoserine transsuccinylase (MetA; Asp101, Tyr294) expressed from starting plasmid pKP413GAP (protein, UniProt P07623 2-309, looked up)
Homoserine …: B1 Homoserine … with Y100D
B7: pSLmetA*Q: MetA variant with Gln instead of Tyr at position 294 (protein, UniProt P07623 2-309, looked up, variant Y294Q)
Homoserine …: B1 Homoserine … with Y100D, Y293Q
B8: pSLmetA*A: MetA variant with Ala instead of Tyr at position 294 (protein, UniProt P07623 2-309, looked up, variant Y294A)
Homoserine …: B1 Homoserine … with Y100D, Y293A
B9: pSLmetAN: MetA variant with Asn instead of Asp at position 101 (protein, UniProt P07623 2-309, looked up, variant D101N)
Homoserine …: B1 Homoserine … with Y100N
B10: pSLmetA*L: MetA variant with Leu instead of Tyr at position 294 (protein, UniProt P07623 2-309, looked up, variant Y294L)
Homoserine …: B1 Homoserine … with Y100D, Y293L
B11: pKP446: MetA variant with Cys instead of Tyr at position 294 (protein, UniProt P07623 2-309, looked up, variant Y294C)
Homoserine …: B1 Homoserine … with Y100D, Y293C
B12: pSLmetA*P: MetA variant with Pro instead of Tyr at position 294 (protein, UniProt P07623 2-309, looked up, variant Y294P)
Homoserine …: B1 Homoserine … with Y100D, Y293P
B13: pSLmetA*K: MetA variant with Lys instead of Tyr at position 294 (protein, UniProt P07623 2-309, looked up, variant Y294K)
Homoserine …: B1 Homoserine … with Y100D, Y293K

Substitutions are numbered along the chain they refer to.

The term Ki denotes a measure of affinity in units of concentration, obtained from inhibition or displacement.

One data set has as its system homoserine transsuccinylase. Briefly: Homoserine transsuccinylase activity test (Lee et al.), 5,5'-dithiobis(2-nitrobenzoic acid), absorption at 412 nm, with and without SAM. It counts as biochemical, E. coli. The settings on record: 1 mM SAM; activity in the absence of SAM corresponds to 100%. The protocol: In order to determine the sensitivity of the activity of the different homoserine transsuccinylases to SAM, it is possible, for example, to carry out an activity test as described in Lee L. W. et al., J. Biol. Chem. 241, 5479-5480 (1966). In this method, the enzyme extract is incubated with homoserine and succinyl-CoA. After various times, a part of the test assay sample is stopped by adding it to a mixture of ethanol, water, and 5,5′-dithiobis(2-nitrobenzoic acid). The absorption is determined photometrically at 412 nm. The described test is suitable, for example, for determining the sensitivity of the homoserine transsuccinylases to SAM.
The influence of SAM on the activities of the different homoserine transsuccinylases was determined by quantifying the activity in the presence of different concentrations of SAM (Cl salt, Sigma). The cell extracts were grown and prepared as described in Example 3. The activity test was carried out as described in Lee L. W. et al., J. Biol. Chem. 241, 5479-5480 (1966), with the enzyme extract being incubated with 50 mM potassium phosphate buffer, pH 7.5, 3 mM homoserine and 0.3 mM succinyl-CoA. After various times, 100 μl volumes of test mixture were stopped by adding them in each case to a mixture of 400 μl of ethanol, 400 μl of water and 100 μl of 10 mM 5,5′-dithiobis(2-nitrobenzoic acid). After the resulting mixture had been incubated at room temperature for 5 minutes, the absorption was determined photometrically at 412 nm. After the protein concentration had been determined, the enzyme activity was calculated using the extinction coefficient. The Ki was determined as a measure of the ability of SAM to inhibit the activity.
On to B1, for which the “Activity (%) in the presence of 1 mM SAM” value came to 95%.
The same measure, in the same setting: the figure for B2 is 91%; for B3 it is 93%.

Still in this data set, the particulars now being: SAM (Cl salt, Sigma) as inhibitor.
As for B1, the Ki was 14 mM.
The same measure, in the same setting: with B4 the figure was 10 mM; with B2, 7 mM; with B3, 16 mM.

The data set is the same for the next values; noted with them: cell extract; 3 mM homoserine, 0.3 mM succinyl-CoA, 50 mM potassium phosphate buffer pH 7.5.
On to B5, for which the “Activity (U/mg)” value came to 0.33 U/mg.
Same read-out and setting: with B6 the figure was 0.62 U/mg; with B7, 0.21 U/mg; with B8, 0.26 U/mg.
In the case of B1, the “Activity (U/mg)” value came to 0.61 U/mg.
On the same count and under the same terms, with B4 the figure was 0.15 U/mg; with B9, 0.30 U/mg.
The same measure, in the same setting: the figure for B10 is 0.29 U/mg; for B2 it is 0.51 U/mg; for B11 it is 0.49 U/mg.
As for B12, the “Activity (U/mg)” value stood at 0.15 U/mg.
Same read-out and setting: with B3 the figure was 0.27 U/mg; with B13, 0.14 U/mg.

The next data set deals with homoserine transsuccinylase. Briefly: Homoserine transsuccinylase enzyme test using cell extracts, decrease in extinction at 232 nm, with and without L-methionine. The class given is biochemical, E. coli. The settings on record: 1 mM L-methionine; activity in the absence of L-methionine corresponds to 100%. From the text:
Any method which enables the activity of the enzyme to be determined in the presence of L-methionine or SAM can be used for determining the sensitivity of the homoserine transsuccinylase to L-methionine and/or SAM. For example, the homoserine transsuccinylase activity can be determined by following the method described by Kredich and Tomkins for determining the activity of serine acetyltransferases (Kredich N. M. and Tomkins G. M., J. Biol. Chem. 241, 4955-4965 (1966)). The enzyme activity is measured in an assay sample which contains homoserine and succinyl-CoA. The reaction is started by adding enzyme and monitored in a spectrophotometer by way of the decrease in the extinction at 232 nm which results from cleavage of the thioester bond in the succinyl-coenzyme A. The described test is suitable for determining the sensitivity of the homoserine transsuccinylases to methionine. The inhibition of homoserine transsuccinylase activity is tested in the presence of different concentrations of L-methionine in the reaction mixture.
The activity, and the influence of L-methionine on the activity, of the different homoserine transsuccinylases were determined by means of an enzyme test using cell extracts in which the respective proteins had been produced. For this, the corresponding plasmids, encoding altered homoserine transsuccinylases, were introduced, by transformation, into the E. coli strain W3110 (ATCC 27325) using methods known to the skilled person. The transformation mixture was spread on LB-tetracycline agar plates (10 g of tryptone/l, 5 g of yeast extract/l, 5 g of NaCl/l, 15 g of agar/l and 15 mg of tetracycline/l) and incubated at 37° C. overnight. The resulting transformants were grown in SM1 medium (for 1 l of medium: CaCl2×2H2O, 0.0147 g, MgSO4×7H2O, 0.3 g, Na2MoO4×2H2O, 0.15 mg, H3BO3, 2.5 mg, CoCl2×6H2O, 0.7 mg, CuSO4×5H2O, 0.25 mg, MnCl2×4H2O, 1.6 mg, ZnSO4×7H2O, 0.3 mg, KH2PO4, 3.0 g, K2HPO4, 12.0 g, (NH4)2SO4, 5 g, NaCl, 0.6 g, FeSO4×7H2O, 0.002 g, Na3-citrate×2H2O, 1 g, glucose, 5 g, tryptone, 1 g, yeast extract, 0.5 g), centrifuged down at an absorption of approx. 0.8 at 600 nm, washed in 50 mM Tris pH 7.5, and centrifuged down once again. The cells were resuspended in 50 mM Tris/Cl, pH 7.5, 2 mM dithiothreitol, 0.5 mM phenylmethylsulfonyl fluoride and disrupted in a French press. The supernatant from a further centrifugation was used as the enzyme extract in the test. The enzyme activity was determined, in a mixture containing 50 mM Tris/Cl, pH 7.6, 1 mM homoserine and 0.1 mM succinyl-CoA, by photometrically quantifying, by means of the decrease in the extinction at 232 nm, the coenzyme A formed in the reaction, following the method described by Kredich and Tomkins for determining the activity of serine acetyltransferases (Kredich N. M. and Tomkins G. M., J. Biol. Chem. 241, 4955-4965 (1966)). The effect of added L-methionine on the activity was determined and the inhibitability was quantified as a Ki value. The Ki which is determined is the concentration of L-methionine at which the activity of the homoserine transsuccinylase is only 50% of its activity in the absence of L-methionine.
For B1, the “Activity (%) in the presence of 1 mM L-methionine” value was 93%.
In the case of B4, the “Activity (%) in the presence of 1 mM L-methionine” value turned out to be 89%.
Same read-out and setting: with B2 the figure was 92%.
Consider B3, for which the “Activity (%) in the presence of 1 mM L-methionine” value is given as 90%.

The same data set, now with this note: cell extract of E. coli W3110 transformants; 1 mM homoserine, 0.1 mM succinyl-CoA, 50 mM Tris/Cl pH 7.6.
Regarding B5, the “Activity (U/mg)” value came to 0.085 U/mg.
As for B6, the “Activity (U/mg)” value came out at 0.155 U/mg.
Consider B7, for which the “Activity (U/mg)” value is recorded as 0.065 U/mg.
Consider B8, for which the “Activity (U/mg)” value is reported as 0.063 U/mg.
Still for that read-out and setting: the figure for B1 is 0.094 U/mg; for B4 it is 0.027 U/mg.
On the same count and under the same terms, the figure for B9 is 0.050 U/mg; for B10 it is 0.070 U/mg; for B2 it is 0.084 U/mg.
Still for that read-out and setting: with B11 the figure was 0.133 U/mg; with B12, 0.020 U/mg.
Regarding B3, the “Activity (U/mg)” value is on record as 0.045 U/mg.
The same measure, in the same setting: the figure for B13 is 0.048 U/mg.

Staying with this data set, now noted: concentration of L-methionine at which activity is only 50% of activity in its absence.
On to B1, for which the inhibition constant Ki amounted to 10 mM.
Same read-out and setting: with B4 the figure was 7.5 mM.
Still for that read-out and setting: the figure for B2 is 5 mM; for B3 it is 12 mM.

Source of the values: patent US7371551B1, “Feedback-resistant homoserine transsuccinylases” (priority 2002, dated 2008).
